From patent US20180030151A1 (MOGAM INSTITUTE FOR BIOMEDICAL RESEARCH, published 2018)
Positions count from the first letter of the chain named. Like-named read-outs stand apart in the source and are kept apart here. One block for each binder: values may come before it.

Columns and labels:
[1] = target: T1, recombinant human TFPI (tissue factor pathway inhibitor) (human, UniProt P10646 29-304); assay: cell-based or functional assay
[2] = target: T1, recombinant human TFPI (tissue factor …); assay: cell-based or functional assay; remark: listed apart in the source
[3] = target: T1, recombinant human TFPI (tissue factor …); assay: cell-based or functional assay; remark: listed apart in the source
[4] = target: T1, recombinant human TFPI (tissue factor …); assay: cell-based or functional assay; remark: listed apart in the source
[5] = target: T1, recombinant human TFPI (tissue factor …); assay: cell-based or functional assay; remark: listed apart in the source
[6] = target: T1, recombinant human TFPI (tissue factor …); assay: yeast-display scFv, FACS with biotinylated TFPI
Method: The finally amplified single colonies were collected from the yeast display library, and then cultured in SD medium at 30° C. at 200 rpm for 12 hours. Then, the medium was replaced with SG medium, and the cells were cultured at 25° C. at 200 rpm for 12 hours or more, thereby expressing the antibody on the yeast surface. Next, the yeast cells recovered by centrifugation were washed with PBSF (1% BSA containing PBS) buffer, resuspended in 50 μl of PBSF buffer, and then incubated with a biotin-conjugated recombinant human TFPI protein and anti-c-myc mouse antibody (CAT. No. M4439, Sigma) at room temperature for 30 minutes. The incubated yeast cells were washed with PBSF, resuspended in 50 μl of PBSF buffer, and then incubated with FITC-conjugated anti-mouse antibody (CAT. No. F0257, Sigma) and PE-conjugated streptavidin on ice under a light-shielded condition for 15 minutes. Next, the cells were washed with PBSF buffer, resuspended in 500 μl of PBSF buffer, and then clones showing high values in the FITC and PE wavelength ranges were selected by FACS, thereby obtaining individual clones.

[7] = target: T1, recombinant human TFPI (tissue factor …); assay: cell-based or functional assay; remark: listed apart in the source
[8] = target: T1, recombinant human TFPI (tissue factor …); assay: cell-based or functional assay; remark: listed apart in the source
[9] = target: T1, recombinant human TFPI (tissue factor …); assay: cell-based or functional assay; remark: listed apart in the source
[10] = target: T1, recombinant human TFPI (tissue factor …); assay: SPR, Biacore T-200; TFPI immobilised on CM5 chip, IgG as analyte
Method: 10 mM of glycine-HCl (pH 1.5) was run at a flow rate of 30 μL/min for 30 seconds, thereby inducing the dissociation of the antibody associated with the TFPI. The affinity in terms of kinetic rate constants (Kₒₙ and Koff) and equilibrium dissociation constant

- effect of inhibiting TFPI, FXa activity assay, Ab 10 nM [1]: ~69%
- effect of inhibiting TFPI, FXa activity assay, Ab 20 nM [1]: ~80%
- A405, TF/FVIIa/FX complex assay (FX 5 nM), Ab 1.56 nM [2]: 0.041
- A405, TF/FVIIa/FX complex assay (FX 5 nM), Ab 3.13 nM [2]: 0.05
- A405, TF/FVIIa/FX complex assay (FX 5 nM), Ab 6.25 nM [2]: 0.052
- A405, TF/FVIIa/FX complex assay (FX 5 nM), Ab 12.5 nM [2]: 0.088
- A405, TF/FVIIa/FX complex assay (FX 5 nM), Ab 25 nM [2]: 0.391
- A405, TF/FVIIa/FX complex assay (FX 5 nM), Ab 50 nM [2]: 0.673
- A405, TF/FVIIa/FX complex assay (FX 5 nM), Ab 100 nM [2]: 0.834
- % of Normalized, TF/FVIIa/FX complex assay (FX 5 nM), Ab 1.56 nM [3]: 5.1%
- % of Normalized, TF/FVIIa/FX complex assay (FX 5 nM), Ab 3.13 nM [3]: 6.1%
- % of Normalized, TF/FVIIa/FX complex assay (FX 5 nM), Ab 6.25 nM [3]: 6.4%
- % of Normalized, TF/FVIIa/FX complex assay (FX 5 nM), Ab 12.5 nM [3]: 10.8%
- % of Normalized, TF/FVIIa/FX complex assay (FX 5 nM), Ab 25 nM [3]: 48.3%
- % of Normalized, TF/FVIIa/FX complex assay (FX 5 nM), Ab 50 nM [3]: 83.2%
- % of Normalized, TF/FVIIa/FX complex assay (FX 5 nM), Ab 100 nM [3]: 103%
- FXa assay % of FXa alone, 2.5 nM Ab, 10 nM TFPI [4]: 7.1%
- FXa assay % of FXa alone, 5 nM Ab, 10 nM TFPI [4]: 33.8%
- FXa assay OD, 2.5 nM Ab, 10 nM TFPI [4]: 0.054
- FXa assay OD, 5 nM Ab, 10 nM TFPI [4]: 0.258
- FXa assay OD, 10 nM Ab, 10 nM TFPI [4]: 0.527
- FXa assay OD, 20 nM Ab, 10 nM TFPI [4]: 0.61
- FXa assay % of FXa alone, 2.5 nM Ab, 10 nM TFPI [5]: 7.4%
- FXa assay % of FXa alone, 5 nM Ab, 10 nM TFPI [5]: 31%
- FXa assay % of FXa alone, 10 nM Ab, 10 nM TFPI [5]: 70.5%
- FXa assay % of FXa alone, 20 nM Ab, 10 nM TFPI [5]: 77.5%
- FXa assay OD, 2.5 nM Ab, 10 nM TFPI [5]: 0.0615
- FXa assay OD, 5 nM Ab, 10 nM TFPI [5]: 0.256
- FXa assay OD, 10 nM Ab, 10 nM TFPI [5]: 0.583
- FXa assay OD, 20 nM Ab, 10 nM TFPI [5]: 0.64
B1: clone 8 (antibody, V domains shown)
VH: EVQLVESGGGLVKPGGSLRLSCAASGFTFSSYAMNWVRQAPGKGLEWVSTITTGGSYTYYADSVEGRFTISRDNAKNSLYLQMNSLRAEDTAVYYCARQDGNFLMDYWGQGTLVTVSS
VL: DVVMTQTPLSLPVTLGQPASISCKSSPSLLDVDGKTYLNWLQQRPGQSPKRLIYLVSKLDSGVPDRFTGSGSGTDFTLKISRVEAEDVGVYYCWQGTHFPFTFGQGTKVEIKR

- effect of inhibiting TFPI, FXa activity assay, Ab 10 nM [1]: ~34%
- effect of inhibiting TFPI, FXa activity assay, Ab 20 nM [1]: ~55%
- FXa assay % of FXa alone, 2.5 nM Ab, 10 nM TFPI [7]: 7.3%
- FXa assay % of FXa alone, 5 nM Ab, 10 nM TFPI [7]: 10.2%
- FXa assay OD, 2.5 nM Ab, 10 nM TFPI [7]: 0.0865
- FXa assay OD, 5 nM Ab, 10 nM TFPI [7]: 0.122
- FXa assay OD, 10 nM Ab, 10 nM TFPI [7]: 0.405
- FXa assay OD, 20 nM Ab, 10 nM TFPI [7]: 0.651
B4: clone 16 (antibody, V domains shown)
VH: B1 VH with S31H, N35T, Y57H
VL: B1 VL with V32I

- effect of inhibiting TFPI, FXa activity assay, Ab 10 nM [1]: ~76%
- effect of inhibiting TFPI, FXa activity assay, Ab 20 nM [1]: ~85%
- A405, TF/FVIIa/FX complex assay, Ab 1.56 nM [8]: 0.046
- A405, TF/FVIIa/FX complex assay, Ab 3.13 nM [8]: 0.054
- A405, TF/FVIIa/FX complex assay, Ab 6.25 nM [8]: 0.075
- A405, TF/FVIIa/FX complex assay, Ab 12.5 nM [8]: 0.101
- A405, TF/FVIIa/FX complex assay, Ab 25 nM [8]: 0.528
- A405, TF/FVIIa/FX complex assay, Ab 50 nM [8]: 0.818
- A405, TF/FVIIa/FX complex assay, Ab 100 nM [8]: 0.859
- % of Normalized, TF/FVIIa/FX complex assay, Ab 1.56 nM [9]: 5.4%
- % of Normalized, TF/FVIIa/FX complex assay, Ab 3.13 nM [9]: 6.4%
- % of Normalized, TF/FVIIa/FX complex assay, Ab 6.25 nM [9]: 8.8%
- % of Normalized, TF/FVIIa/FX complex assay, Ab 12.5 nM [9]: 11.9%
- % of Normalized, TF/FVIIa/FX complex assay, Ab 25 nM [9]: 62.2%
- % of Normalized, TF/FVIIa/FX complex assay, Ab 50 nM [9]: 96.5%
- % of Normalized, TF/FVIIa/FX complex assay, Ab 100 nM [9]: 101%
- FXa assay % of FXa alone, 2.5 nM Ab, 10 nM TFPI [5]: 7.8%
- FXa assay % of FXa alone, 5 nM Ab, 10 nM TFPI [5]: 44.8%
- FXa assay OD, 2.5 nM Ab, 10 nM TFPI [5]: 0.0645
- FXa assay OD, 5 nM Ab, 10 nM TFPI [5]: 0.37
- FXa assay OD, 10 nM Ab, 10 nM TFPI [5]: 0.624
- FXa assay OD, 20 nM Ab, 10 nM TFPI [5]: 0.706
B6: clone 13 (antibody, V domains shown)
VH: B1 VH with S49G, Y57H
VL: B1 VL with V32I

- binding result [6]: binds
B13: clone 15 (antibody, V domains shown)
VH: EVQLVESGGGLVKPGGSLRLSCAASGFTFSKYAMNWFRQAPGKGLEWVSTITTGGSYTYYADSVEGRFTISRDNAKNSLYLQMNSLRAEDTAVYYCARQHPYGNFLMDYWGQGTLVTVSS
VL: B1 VL with V32S, T97F, H98Y
notes: human IgG4/kappa IgG as purified

- FXa assay % of FXa alone, 2.5 nM Ab, 10 nM TFPI [7]: 6.9%
- FXa assay % of FXa alone, 5 nM Ab, 10 nM TFPI [7]: 7.4%
- FXa assay % of FXa alone, 10 nM Ab, 10 nM TFPI [7]: 10.4%
- FXa assay % of FXa alone, 20 nM Ab, 10 nM TFPI [7]: 62.5%
- FXa assay OD, 2.5 nM Ab, 10 nM TFPI [7]: 0.082
- FXa assay OD, 10 nM Ab, 10 nM TFPI [7]: 0.124
- FXa assay OD, 20 nM Ab, 10 nM TFPI [7]: 0.745
B14: clone 23 (antibody, V domains shown)
VH: B1 VH with S31H, N102H
VL: B1 VL with V32I, F99L

- FXa assay % of FXa alone, 2.5 nM Ab, 10 nM TFPI [7]: 5.9%
- FXa assay % of FXa alone, 5 nM Ab, 10 nM TFPI [7]: 6%
- FXa assay % of FXa alone, 10 nM Ab, 10 nM TFPI [7]: 6.5%
- FXa assay % of FXa alone, 20 nM Ab, 10 nM TFPI [7]: 7.2%
B15: clone 21 (antibody, V domains shown)
VH: B1 VH with T53K, E65D
VL: B1 VL with V32S

- binding result [6]: binds
B16: clone 4034 (antibody, V domains shown)
VH: B1 VH with Y57H, N102Y
VL: B1 VL with P27Q, V32I
notes: scFv on yeast at selection; human IgG4/kappa IgG as purified

- effect of inhibiting TFPI, FXa activity assay, Ab 10 nM [1]: 89%
- Kd [10]: 9.4 pM
B17: clone T308 (antibody, human IgG4, V domains shown)
VH: EVKLVESGGGLVKPGGSLKLSCAASGFTFSNYPMSWVRQTPEKRLEWVATISNSGSYTYYPDSVKGRFTISRDNAKNTLYLQMNSLRSEDTAMYYCARQVYGNYEDFDYWGQGTTLTVSS
VL: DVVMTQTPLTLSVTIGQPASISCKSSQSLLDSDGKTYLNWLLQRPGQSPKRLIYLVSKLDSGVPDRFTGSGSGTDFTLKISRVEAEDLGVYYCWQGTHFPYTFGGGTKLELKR

The remaining lines, values behind:

B2: clone 4278 (antibody, V domains shown)
VH: B13 VH with T53L, E65D, H100Y, P101L, Y102D
VL: B1 VL with P27Q, V32I
notes: as for B16
- binding result [6]: binds

B3: clone 14 (antibody, V domains shown)
VH: B13 VH with T53L, E65D, H100Y, P101L, Y102D
VL: B1 VL with V32S, H98Y
notes: as for B13
- binding result [6]: binds

B5: clone 1248 (antibody, V domains shown)
VH: B1 VH with Y57H, E65D, N102H
VL: B1 VL with P27Q, V32I
notes: as for B16
- binding result [6]: binds

B7: clone 1232 (antibody, V domains shown)
VH: B1 VH with E65D, N102H
VL: B1 VL with P27Q
notes: as for B16
- binding result [6]: binds

B8: clone 1208 (antibody, V domains shown)
VH: B1 VH with Y57H, N102H
VL: B1 VL with P27Q, H98Y, F99L
notes: as for B16
- binding result [6]: binds

B9: clone 1223 (antibody, V domains shown)
VH: B1 VH with N102H
VL: B1 VL with P27Q, V32I
notes: as for B16
- binding result [6]: binds

B10: clone 4041 (antibody, V domains shown)
VH: B1 VH with N35S, Y57H, N102Y
VL: B1 VL with P27Q
notes: as for B16
- binding result [6]: binds

B11: clone 4011 (antibody, V domains shown)
VH: B1 VH with S30Y, Y57H
VL: B1 VL with P27Q, F99L
notes: as for B16
- binding result [6]: binds

B12: clone 1243 (antibody, V domains shown)
VH: B1 VH with Y57H, E65H, N102H
VL: B1 VL with P27Q, V32I
notes: as for B16
- binding result [6]: binds
